The source of these data is publication PMC9246859 (Nature chemical biology, 2022).

* marks the point of attachment. FITC = O=C1OC2(c3ccc(O)cc3Oc3cc(O)ccc32)c2ccc(NC(=S)*)cc21; βAla = NCCC(=O)O

Assay [1] addresses T1, NorA (S. aureus quinolone efflux pump), C-terminal decahistidine tag, in PMAL-C8 amphipol (S. aureus, UniProt Q5HHX4 1-388).
T1 sequence: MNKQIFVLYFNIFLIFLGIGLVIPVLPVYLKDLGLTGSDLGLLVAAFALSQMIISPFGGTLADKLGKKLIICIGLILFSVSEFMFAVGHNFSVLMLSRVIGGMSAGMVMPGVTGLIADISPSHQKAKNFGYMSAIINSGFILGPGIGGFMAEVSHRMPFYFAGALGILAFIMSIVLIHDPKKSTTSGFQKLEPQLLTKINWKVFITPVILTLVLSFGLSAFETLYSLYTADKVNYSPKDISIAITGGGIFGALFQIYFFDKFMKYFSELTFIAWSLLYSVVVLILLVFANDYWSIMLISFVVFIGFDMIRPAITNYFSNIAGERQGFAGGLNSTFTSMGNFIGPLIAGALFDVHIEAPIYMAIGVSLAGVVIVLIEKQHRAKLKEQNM
Nature of the assay: fluorescence polarisation. (In general: Polarisation of emitted light reports the rotation of a fluorescent probe.)

Assay [2] deals with T2, NorA (S. aureus quinolone efflux pump), C-terminal decahistidine tag, in PMAL-C8 amphipol (S. aureus) (UniProt Q5HHX4).
T2 sequence: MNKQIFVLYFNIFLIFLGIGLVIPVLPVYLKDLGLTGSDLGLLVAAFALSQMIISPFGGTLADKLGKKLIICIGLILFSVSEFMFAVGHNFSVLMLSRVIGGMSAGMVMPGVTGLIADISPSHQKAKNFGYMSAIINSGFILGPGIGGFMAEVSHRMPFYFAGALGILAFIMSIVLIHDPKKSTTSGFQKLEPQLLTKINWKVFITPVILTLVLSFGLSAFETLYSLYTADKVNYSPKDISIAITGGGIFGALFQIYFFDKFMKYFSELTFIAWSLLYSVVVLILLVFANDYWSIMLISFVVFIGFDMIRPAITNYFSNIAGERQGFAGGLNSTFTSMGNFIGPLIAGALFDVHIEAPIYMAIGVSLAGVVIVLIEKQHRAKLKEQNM
Nature of the assay: MST.

Assay [3] has as its target NorA (S. aureus quinolone efflux pump), C-terminal decahistidine tag, in PMAL-C8 amphipol (S. aureus, UniProt Q5HHX4). Nature of the assay: MST.

B1: FITC-NPI-1 (fluorescent analog of NPI-1) (peptide)
peptide: {FITC-βAla}-YYYYAWRVGGYWR-NH2
SMILES: CC(C)[C@H](NC(=O)[C@H](CCCNC(=N)N)NC(=O)[C@H](Cc1c[nH]c2ccccc12)NC(=O)[C@H](C)NC(=O)[C@H](Cc1ccc(O)cc1)NC(=O)[C@H](Cc1ccc(O)cc1)NC(=O)[C@H](Cc1ccc(O)cc1)NC(=O)[C@H](Cc1ccc(O)cc1)NC(=O)CCNC(=S)Nc1ccc2c(c1)C(=O)OC21c2ccc(O)cc2Oc2cc(O)ccc21)C(=O)NCC(=O)NCC(=O)N[C@@H](Cc1ccc(O)cc1)C(=O)N[C@@H](Cc1c[nH]c2ccccc12)C(=O)N[C@@H](CCCNC(=N)N)C(N)=O
Usually Kd stands for the constant that tells how readily two partners part at equilibrium. A higher Kd goes with weaker binding. In assay [1], B1 returned a Kd of 10 nM.

B2: Fab36 R134A (CDRH3 mutant) (Fab, V domains shown)
VH: EVQLVESGGGLVQPGGSLRLSCAASGFTFSSSSIHWVRQAPGKGLEWVASISSSSGSTSYADSVKGRFTISADTSKNTAYLQMNSLRAEDTAVYYCARYSRYYYYAWAVGGYWGGLDYWGQGTLVTVFN
VL: DIQMTQSPSSLSASVGDRVTITCRASQSVSSAVAWYQQKPGKAPKLLIYSASSLYSGVPSRFSGSRSGTDFTLTISSLQPEDFATYYCQQSSSSLITFGQGTKVEIK
For B2, in assay [2], the Kd is more than 14000 nM.

B3: Fab36 W133A (CDRH3 mutant) (Fab, V domains shown)
VH: EVQLVESGGGLVQPGGSLRLSCAASGFTFSSSSIHWVRQAPGKGLEWVASISSSSGSTSYADSVKGRFTISADTSKNTAYLQMNSLRAEDTAVYYCARYSRYYYYAARVGGYWGGLDYWGQGTLVTVFN
VL: DIQMTQSPSSLSASVGDRVTITCRASQSVSSAVAWYQQKPGKAPKLLIYSASSLYSGVPSRFSGSRSGTDFTLTISSLQPEDFATYYCQQSSSSLITFGQGTKVEIK
Take B3: in assay [3], the “fold reduction of binding affinity against Fab36” value was approximately 20 fold.

B4: Fab25 (synthetic antigen-binding fragment against NorA) (Fab, V domains shown)
VH: EVQLVESGGGLVQPGGSLRLSCAASGFTFSSSSIHWVRQAPGKGLEWVASISSSSGSTSYADSVKGRFTISADTSKNTAYLQMNSLRAEDTAVYYCARWETGYYPYWRMYGFYWALDYWGQGTLVTVFN
VL: DIQMTQSPSSLSASVGDRVTITCRASQSVSSAVAWYQQKPGKAPKLLIYSASSLYSGVPSRFSGSRSGTDFTLTISSLQPEDFATYYCQQSSSSLITFGQGTKVEIK
Molecule B4 came in with a Kd in assay [3] of 1200 nM.

B5: Fab36 (synthetic antigen-binding fragment against NorA) (Fab, V domains shown)
VH: EVQLVESGGGLVQPGGSLRLSCAASGFTFSSSSIHWVRQAPGKGLEWVASISSSSGSTSYADSVKGRFTISADTSKNTAYLQMNSLRAEDTAVYYCARYSRYYYYAWRVGGYWGGLDYWGQGTLVTVFN
VL: DIQMTQSPSSLSASVGDRVTITCRASQSVSSAVAWYQQKPGKAPKLLIYSASSLYSGVPSRFSGSRSGTDFTLTISSLQPEDFATYYCQQSSSSLITFGQGTKVEIK
The molecule B5 registered a Kd in assay [3] of 140 nM. This Kd is about 8.6-fold lower than that of the molecule before.
